Source: a protein production outcome set (Wang et al. 2014)

Test: label from the status in PepcDB records

Sequence	protein production
KKKSIPQPTNALKSFNWSKLPENKLEGTVWTEIDDTKVFKILDLEDLERTFSAYQRQQDFFVNSNSKQKEADAIDDTLSSKLKVKELSVIDGRRAQNCNILLSRLKLSNDEIKRAILTMDEQEDLPKDMLEQLLKFVPEKSDIDLLEEHKHELDRMAKADRFLFEMSRINHYQQRLQSLYFKKKFAERVAEVKPKVEAIRSGSEEVFRSGALKQLLEVVLAFGNYMNKGQRGNAYGFKISSLNKIADTKSSIDKNITLLHYLITIVENKYPSVLNLNEELRDIPQAAKVN	failed
MTPMKTYDLIVIGTGPGGYHAAIRAAQLGLKVLAVEAGEVGGVCLNVGCIPTKALLHAAETLHHLKVAEGFGLKAKPELDLKKLGGWRDQVVKKLTGGVGTLLKGNGVELLRGFARLVGPKEVEVGGERYGAKSLILATGSEPLELKGFPFGEDVWDSTRALKVEEGLPKRLLVIGGGAVGLELGQVYRRLGAEVTLIEYMPEILPQGDPETAALLRRALEKEGIRVRTKTKAVGYEKKKDGLHVRLEPAEGGEGEEVVVDKVLVAVGRKPRTEGLGLEKAGVKVDERGFIRVNARMETSVPGVYAIGDAARPPLLAHKAMREGLIAAENAAGKDSAFDYQVPSVVYTSPEWAGVGLTEEEAKRAGYKVKVGKFPLAASGRALTLGGAEGMVKVVGDEETDLLLGVFIVGPQAGELIAEAALALEMGATLTDLALTVHPHPTLSESLMEAAEAFHKQAIHILNR	not failed
YYFKEYHLPYPKGVIFSGNIPPCFYHKSDPPLHLLPDKIFLEEVSKLGGIPGKIIKEKQFVEYFVPIIKNDFKLIENYYFQQKQEKFPVKSLICSGKDDKFRVKDLVQWENYFIDKCSISLFKGGHFYIDDNIASLCNQIKDFIY	failed
MSTASYAFRDNLTMLRRNLLHARRYPSLTLNLLLTPVILLLLFVYVFGNVMSAGINGGHANRADYVDYLVPGILLLTVAMTSLGTAVAVCTDMTEGIMARFRTMAISRASVLIGHVIGSVLQTLMALVLVLGIGLAIGFRPDASPVEWIAAAALMALTSLAMTWLAVGIGLVSPNPEGASNIGTPLVMLPFLSSAFVPVDAMPGWFRWFAEYQPFSPLIETLRGLLLGSGIGTRNAVLAVAWCLGLSLLGYLWSKARFNREPRH	failed
MAAAPWYIRQRDTDLLGKFKFIQNQEDGRLREATNGTVNSRWSLGVSIEPRNDARNRYVNIMPYERNRVHLKTLSGNDYINASYVKVNVPGQSIEPGYYIATQGPTRKTWDQFWQMCYHNCPLDNIVIVMVTPLVEYNREKCYQYWPRGGVDDTVRIASKWESPGGANDMTQFPSDLKIEFVNVHKVKDYYTVTDIKLTPTDPLVGPVKTVHHFYFDLWKDMNKPEEVVPIMELCAHSHSLNSRGNPIIVHCSAGVGRTGTFIALDHLMHDTLDFKNITERSRHSDRATEEYTRDLIEQIVLQLRSQRMKMVQTKDQFLFIYHAAKYLNSLSVNQ	failed
MNSQPRHFAPLARLLHWLMALLIIAMLFIGAGMVASVSARHEWLIHLHKPLGIAILLLVLVRLWVRFYTRQPPLPADLPGWQVLAAKASHVLLYALMLSLPLLGWGMISAAGDPVMLGSSLQLPAILPANAQLFAVLRKAHGYLAYLLFFTVLLHLAAALFHGWVRRDGVLQSMLRGRG	not failed
MTRTEYLAELDKYLRKLPREDYHEAMEYYIEYFDEAGPDKESQVIDDLGNPKEAASEIISNVLGKHLATPEKTPKNRATIIGLTILSLFAAPIALPVLLALILFIIACLMLGLTAIFAAYIFGLAGILVAGVTLFESLTLIGSSIPAQAMGIGSALLCFGGGLLIWIIATAFLRFSGRAFVAFIKWISNKKGAQA	failed
MRVLPLLLLIYPFAEIAALVALADRIGGLAVFLLVLLSSMLGLWMLRNQKLGALLTLGSVMRQGDKVSLYSLLWPLRYALAGLLFLLPGLLSDVAAVLLLLPLKGPDISLRATGAGPAAGPAGGSDIIEGEFSRVDETTPPGRRIQ	failed
MEYYDIIIVGAGPAGSTLARALEDSGKRVLIIDKQAFPRDKTCAGWVTPAVMASLDIDPGKYSVGRTLQPIRRFRIGMMGQSAVENDHGDIVSYGIRRCEFDDYLLDRAECEKQLATAVKSINRNNGNWVINDQWQAPLLVGAGGHFCPVARLLGDGPGKHETVVAAKEVEFEMTPEQARACEARGDTPELWFCRDLKGYAWVFRKGSYLNIGLGREDNHRLSDHLEAFVEEMKQSGRIPSDLPGRFKGHAYLLYAHANRPLVDDGVLLIGDAAGLAYTQSGEGIRPAIESALMAANVIKAAPDYSALSLQSYGERIAERFGTRATDQQPGFEVPEWLKQPIASTLMRSHWFTRKVVTEKWFLHQEVPPLEVAV	failed
MQQSEHFSFGEQTEIEDIGGGLKRQMLGFNHELMAVKIWFDKGAEGYVHAHRHSQVSYVVEGEFHVNVDGVIKVLTAGDSFFVPPHVDHGAVCPTGGILIDTFSPAREDFVEGLS	not failed
KFGELREISGNQYVNEVTNAEKDLWVVIHLYRSSVPMCLVVNQHLSVLARKFPETKFVKAIVNSCIEHYHDNCLPTIFVYKNGQIEGKFIGIIECGGINLKLEELEWKLSEVGAIQSDLEEN	not failed
MSVILLGLGRYVEEIVEVVSAISDVVLVERDEARLRAFLEKAPVANLRALPGSATDVGLWKEVDLEAAEAVISFLSVEATLDVARLLRKALGYRSKIVHVSKARPDPQAVRELDLEVVSIPEVLGAILRNLLQGQGIVRYPVGIGLRKGEVVEVLITESSPAVYARLRELRQPGARVALVYREGSPILPRADFRVQPGDRLLVVGDPRGVEIFVGAVIRGEPTFPRRFGSVGALCRAEDEEALYLKERLKVRDWVEACEDPKGVAEVGVFLARDRDWVRRAFQEGYPFPSFHLRGTHPYRSILVSANTEALSPLLASAMDLARIFGSEVYVLFVSRVEAFMPPEEKELLENLKVLVERARKTSGLEVHLIRKEGNPVRETLRLLKGKFNLLALGYTPGRRTAFFRPYVPQLLAQASPVSTLLVPEVNLER	failed
MELKQSLSTHLEAEKPLRRYGAVEETAWKTERLGRNQLDIISMAETTMMPEEIELEMAKIQRLREVLVRRESELRFMMDDIQLCKDIMDLKQELQNLVAIPEKEKTKLQKQREDELIQKIHKLVQKRDFLVDDAEVERLREQEEDKEMADFLRIKLKPLDKVTKSPASSRAEKKAEPPPSKPTVAKTGLALIKDCCGATQCNIM	failed
INIEIAYAFPERYYLKSFQVDEGITVQTAITQSGILSQFPEIDLSTNKIGIFSRPIKLTDVLKEGDRIEIYRPLLADPKEIRRK	not failed
MNFLPPTPPPPDPVGWKLPRGSLARHLVLRLMPPLLLLVLLDLAATWVITHKIDMSIWMLEDFFWLMVVGQIVLIALFTGVIIRGVRSGLRSVNHLAEEIRQRSIDDMQPMEVAGLPAEIAPLVTHINDLLGRLDASLAAQRRFIGHAAHQLRTPLSGLRLESELMLARPLPEDVRMRAERIKAVSDRMIRLGQQLLVMARADPDARPQDRFIRLDLCEWVRASGAEWIPRVRAAQAEIDLVAPEQPVWIDGDPLLLDEMLGNLIDNALRYGKPRGRICLTIDVNPPALIIEDDGPGISPQERDSVFEAFYRAPDAKAGGSGLGLAIVREIAHAHGAWWKLSSRPEYAGTRLSVVFPGPRIGTQLTRQERAS	failed
MGSSGDLANSAERKLDDEKKRCDWRFTDNTPLIAACLLTGAVVLGVHYISICKDRTDISLPTLMESIESKCRSLGDAFNASAPESVLHPVPTQIGVAIWVAREEWSLPVHDTLDRIEKVVSGAGNRKQQFIQRIVRVSQLGSDGNLEKSSSSSTKWGGSSKVSQDPLANAAIKQQLGLSVAKHAYAVSLKEELLMHTISFFAAPPSAAKSVRCFLFDDKRAYCTVSTEMGMETTKREVEAAVATLLANWLEIENFRDANATQRWAMMRKVRGCHYALRALRQLKMSVDAHPEMPVPEGVRGAADRLEKLVRESDFAKLARAAADLQFHQLLLPQIYIPWDQAVVNHLSILMPVYGVITLAVRLIKENRKRAQVVQNS	failed
MGTIGAAGCTVNRFAVALMPDSGGHPRKPIAGVDAPPPHLLLVARRMTRPGEHMALTTYTPVITVFAAGREWTLERAADLQTLWDNMVEADFGDDERLPYWTELWPSSLVLADWLHDNAGRIRGRTCLDMGCGLGLCSLVGQWLGARVTGMDYEPEALFHARRNAERNRVPQPLWTVMDWRAPAVRRHAADLVWGGDIMYERRFVTPVLDFLDHVLAPCGAAWVAEPGRTVYNHFRETLDARGWHARRVLSSETASLYEQPESVTVHLWEITRLEHHHHHH	failed
MLKNIFKISNIPAVLWGDKSEKIFIAVHGNMSNKEDAVIQIVAEEADRKGYQVLSFDLPEHGERKNDNTPCKVQFCVNELSIIMNYAKEHWKEINVFACSMGAYFSLLAFQNDVIEKALFLSPVVNMERIIENMMKWFNVTPELLQKEMTIETPIGQKLYWDYLCYVKEHPISTWNTDTYIMYGAKDELCEFETINYFTKKHRCELEVMETGEHYLHTEEQLKIFEQWLHKHID	failed
MASEEGQVIACHTVETWNEQLQKANESKTLVVVDFTASWCGPCRFIAPFFADLAKKLPNVLFLKVDTDELKSVASDWAIQAMPTFMFLKEGKILDKVVGAKKDELQSTIAKHLA	failed
MIFNTLARYFLKRYLMTTIWFVLGVSSIIYLADFSETARRMSGLPGYSVPAALGLTALRLPLILQQTVPFIALFVGMTTLISLNRRYELVVTRAAGISAWQFILPFVLGAVFIGILSVMVLNPIAAWGQNKSLAMEAGLRNDAGGGRQQEIIPWMRQSSGGKDTIIGAKSFEDNGTMLLDVVLIDVDKDGNIVSRKDAKSAKLEDGYWLLNGVSETRAGHVPVRQESMQISTNLRREFVQERMTQTETVAFFDLSHKIEVAKSFGLSSKALETQYHFLLSTPLLLVAMTLIAATVSLKFSRFAQSRSVILGGIVSGFVLYVVTVLVRAFGSGGVVPPTVAVWVPVIVALALGATILLHQEDG	failed
DPLDNLVAPTAAAAAAAAGKKKQPSAAAAAATKTTANKVANSNNKANAGSNIGGPNAKKPNQAEKENKPNNALNKTDGKKFTPSADNKQQQFNNNASSNYK	failed
MQETDNLLKTLNVKSLLEALLVYTPKGYKDLNLLERFETGLSGVLEVGILEKRNYAKVLKIFAYSKRFYKNLELVFFNYSAFHHSQFKTGESLFIYGKLEQSSFNQAYIINTPKIITKFGKISLIFKKVKNHKKIQENLQKLISLENLKKEGVKENIAHLLLEIFFPTPHFVKDFETNKNFPSQHLNALKYIEMLFYMKNLERKKLQFGAKIACPNNNERLKAFIASLPFKLTRDQQNAIKEIQNDLTSSIACKRLIIGDVGCGKTMVILASMVLTYPNKTLLMAPTSILAKQLYNEALKFLPPYFEVELLLGGSYKKRSNHLFETITHVVIGTQALLFDKRDLNEFALVITDEQHRFGTKQRYQLEKMASSKGNKPHSLQFSATPIPRTLALAKSAFVKTTMIREIPYPKEIETLVLHKRDFKIVMEKISEEIAKNHQVIVVYPLVNESEKIPYLSLSEGASFWQKRFKKVYTTSGQDKNKEEVIEEFRESGSILLATTLIEVGISLPRLSVMVILAPERLGLATLHQLRGRVSRNGLKGYCFLCTIQEENERLEKFADELDGFKIAELDLEYRKSGDLLQGGEQSGNSFEYIDLAKDENIIAEVKRDFLKAASVSRGTFEN	failed
AKGKNLIIVQLESFQRNLTNIKIDGQSITPTLDSLQNETMYSNKFFQTVSKSNTADAEWSVYTSTFPSGYYTNTQTYGDRVIPSMPRLLGKNDYTTSTFHTNDASFYNRDEFYPAVGFDKFYDRKFFGDEDVIGFSPSDEVLYNKAFPILEKQYKNNQKFYAQLISVSSHMPFNIPEEKQEINLPSDLKDTELGNYFEAVHYADKQLGAFIQKLKDSGIWEDSVVVFYGDHHIIKTDQLPEEQKKYVNRSTELKADPADDYRIPFFLHYPGMKNPGEIKNVGGEIDIMPTVMNLLGINTGNQIMFGTDILNSTNNYVPERYTMPEGSYFTDSYMYQP	failed
